Assay [1] deals with mAb ZTS-361. The assay is described as follows: Peptide block of mAb ZTS-361 inhibition of IL-31 mediated STAT3 phosphorylation in feline FCWF-4 macrophages. Type of assay: cell-based. The settings on record: for IC50, conjugated peptide: CRM197 conjugated, co-incubated 1 hour with 0.2 μM mAb ZTS-361, FCWF-4 cells.
In assay [2] the test system is wildtype feline IL-31. Kind of assay: Indirect ELISA, binding to wildtype feline IL-31. How it is done: (§1) Mice and dogs were immunized with recombinant canine IL-31 (SEQ ID No. 155) for the purpose of identifying antibodies. Serum antibody titers from immunized animals were determined using an enzyme linked immunosorbent assay (ELISA). Canine or feline IL-31 (50 ng/well) was immobilized to polystyrene microplates and used as a capture antigen. Serum from immunized animals was diluted in phosphate buffered saline with 0.05% tween-20 (PBST). The presence of anti-IL-31 antibodies was detected with an appropriate secondary HRP labeled antibody. Following addition of a chromogenic substrate (SureBlue Reserve TMB 1-Component Microwell Peroxidase Substrate, KPL, Inc., Gaithersburg, Md.) and a ten minute incubation at room temperature (RT) the reaction was stopped with the addition of […] of 0.1 N HCl. The absorbance of each well was determined at an optical density (OD) of 450 nm. Antibodies were selected for their ability to bind canine and feline IL-31 using an ELISA. In some cases, further characterization was performed at the time of selection using an ELISA with a mutant form of the feline IL-31 protein as a capture antigen. Cells producing antibodies with desired binding and inhibitory properties were chosen for sequence analysis of RNA transcripts representing the variable heavy (VH) and variable light (VL) IgG chains.
(§2) For the indirect ELISA method, antibody binding to wildtype and feline IL-31 15H05 mutant proteins was assessed. […] In comparison, the 11E12 antibody bound to the wild-type feline IL-31 and its binding was not impacted by the mutations in the 15H05 epitope region as evidenced by the data in FIG. 4. To confirm binding, biacore analysis was performed using canine, feline, equine, human, feline 15H05 mutant, and feline 11E12 mutant IL-31 proteins as surfaces and a single test concentration of antibody. Similar to ELISA observations, all antibodies tested bound to wildtype feline IL-31. In agreement with the data described above in this section, mouse antibodies 11 E12 and 15H05 both bound to canine and feline IL-31 surfaces. […] From this group of nine fully canine antibodies, only ZIL1 and ZIL9 cross-reacted with equine IL-31. Of note, antibody 15H05 was the only one of all assayed herein that bound to canine, feline, and equine IL-31 indicating some level of epitope conservation across the three species. In contrast, none of the antibodies described herein bound to human IL-31. Additional biacore surfaces were used to verify ELISA observations showing differential binding of antibodies to wildtype feline IL-31 and two proteins with mutations in the 15H05 (15H05 mutant) or 11 E12 (11E12 mutant) epitopes. […] Differing results can be attributed to differences in the two assay methodologies.
(§3) To determine the impact of mAbs 11E12 and 15H05 ability to bind these mutant forms of feline IL-31, an indirect ELISA was run using the mutants directly coated on to an immunoassay plate. […] The minor attenuation of mAb 15H05s binding to the 11E12 mutant is likely due to translational effects of the mutations from movement of the two front helices effecting the 15H05 binding site. The mutations designed to affect mAb 15H05s binding (mutant 15H05) show a complete loss of mAb 1505s ability to bind this IL-31 mutant by ELISA. Unlike the 11E12 mutant, the changes in the random coil recognized by mAb 15H05 (mutant 15H05) had no impact on mAb 11E12 binding further supporting the distinction between the two epitopes (FIG. 6C).

Assay [3] relates to feline IL-31 15H05 mutant. Kind of assay: Indirect ELISA, binding to feline IL-31 15H05 mutant. The conditions noted are these: compared with wildtype. On the procedure: as §1, §2, §3
For orientation: In an ELISA, binding on a coated surface is turned into a signal by an enzyme label.

Assay [4] deals with feline 11E12 mutant IL-31. The assay is described as follows: Biacore binding, single test concentration of antibody, feline 11E12 mutant IL-31 surface. How it is done:
(§4) For the indirect ELISA, binding (ELISA OD) to wildtype feline IL-31 and a feline IL-31 15H05 mutant which had mutations in the monoclonal antibody 15H05 epitope region was assessed. To confirm binding, biacore analysis was performed using canine, feline, equine, human, the feline 15H05 mutant, and feline 11E12 mutant IL-31 proteins as surfaces and a single test concentration of antibody. The feline IL-31 11E12 mutant had mutations in the monoclonal antibody 11E12 epitope region.
as §2
On the technique in general: In SPR one partner is held on a chip, and binding of the other changes the refractive index at the surface.

In assay [5] the test system is canine IL-31. Kind of assay: Biacore binding, single test concentration of antibody, canine IL-31 surface. How it is done: as §4, §2
For assay [6], the system named is feline 15H05 mutant IL-31. Kind of assay: Biacore binding, single test concentration of antibody, feline 15H05 mutant IL-31 surface. How it is done:
as §4, §2

Changes are numbered by the printed parent chain. Where no end group is shown, it is not given here.

canine IL-31, sequence (as listed by the source): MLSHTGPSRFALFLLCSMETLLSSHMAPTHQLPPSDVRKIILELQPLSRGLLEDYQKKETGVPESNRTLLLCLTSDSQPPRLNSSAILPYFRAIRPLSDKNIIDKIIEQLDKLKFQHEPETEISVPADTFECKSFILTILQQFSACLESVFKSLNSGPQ
wildtype feline IL-31, sequence (as listed by the source): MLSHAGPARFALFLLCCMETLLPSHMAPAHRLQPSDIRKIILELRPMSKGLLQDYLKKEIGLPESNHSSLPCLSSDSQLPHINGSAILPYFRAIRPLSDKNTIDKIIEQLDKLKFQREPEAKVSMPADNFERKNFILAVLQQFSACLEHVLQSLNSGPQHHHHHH
feline IL-31 15H05 mutant, sequence (as listed by the source, change not shown): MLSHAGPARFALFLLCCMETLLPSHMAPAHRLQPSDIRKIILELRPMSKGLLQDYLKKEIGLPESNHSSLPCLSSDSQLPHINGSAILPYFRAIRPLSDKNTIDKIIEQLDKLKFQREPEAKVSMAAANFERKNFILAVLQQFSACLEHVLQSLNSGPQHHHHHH
mAb ZTS-361, sequence (as listed by the source): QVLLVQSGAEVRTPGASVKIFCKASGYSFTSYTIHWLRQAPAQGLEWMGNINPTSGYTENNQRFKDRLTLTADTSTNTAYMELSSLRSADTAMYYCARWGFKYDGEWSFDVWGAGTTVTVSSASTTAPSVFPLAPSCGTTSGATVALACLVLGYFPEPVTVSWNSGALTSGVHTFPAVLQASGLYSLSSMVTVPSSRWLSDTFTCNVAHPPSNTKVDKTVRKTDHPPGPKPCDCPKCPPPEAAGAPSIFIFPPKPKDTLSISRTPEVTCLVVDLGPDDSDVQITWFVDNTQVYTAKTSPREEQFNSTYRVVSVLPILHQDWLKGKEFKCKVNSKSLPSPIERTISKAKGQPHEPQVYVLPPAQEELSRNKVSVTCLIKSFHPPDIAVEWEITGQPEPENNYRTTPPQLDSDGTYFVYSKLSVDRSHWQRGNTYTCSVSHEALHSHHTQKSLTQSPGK
mAb ZTS-361, sequence (as listed by the source): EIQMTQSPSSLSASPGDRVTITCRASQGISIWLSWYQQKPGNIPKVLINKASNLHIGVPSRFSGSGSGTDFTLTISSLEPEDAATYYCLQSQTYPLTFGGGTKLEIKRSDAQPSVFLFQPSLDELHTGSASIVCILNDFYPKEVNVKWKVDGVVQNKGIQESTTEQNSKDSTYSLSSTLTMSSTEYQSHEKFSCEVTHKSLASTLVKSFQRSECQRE
feline 11E12 mutant IL-31, sequence (as listed by the source, stated change not applied): as the sequence (as listed by the source, change not shown) above, with D104A, I107A, A126P, A128D counted along it

Take “constrained canine IL-31 15H05 mimotope, N-EISVPADTFERKSF-C plus N and C terminal Cysteines (CEISVPADTFERKSFC; cysteine pairing not given here; also: constrained, mode not given here) [ZTS-562]”: in assay [1], the “IC50, conjugated peptide” value came out at 3.024 µg/mL. The “decline of potency following conjugation” value in assay [1] (conjugated vs unconjugated) is listed as “approximately 3 fold”.

Consider “constrained canine IL-31 15H05 mimotope, N-TEISVPADTFERKSFILT-C plus N and C terminal Cysteines, mT2a linker [ZTS-561]”, for which the “IC50, conjugated peptide” value in assay [1] is on record as “poor potency”.

B1: ZIL8: fully canine anti IL-31 antibody, VH SEQ ID NO: 79, VL SEQ ID NO: 81 (antibody, listed as Canis familiaris, V domains shown)
VH: EVQLVESGGDLVKPAGSLRLSCVASGFTFSDYAMSWVRQAPGRGLQWVAGIDSVGSGTSYADAVKGRFTISRDDAKNTLYLQMFNLRAEDTAIYYCASGFPGSFEHWGQGTLVTVSS
VL: QSVLTQPASVSGSLGQKVTISCTGSSSNIGSGYVGWYQQLPGTGPRTLIYYNSDRPSGVPDRFSGSRSGTTATLTISGLQAEDEADYYCSVYDRTFNAVFGGGT
With B1, in assay [2], the “binding to wildtype feline IL-31 (ELISA)” value was “capable of binding”. The “binding to feline IL-31 15H05 mutant (ELISA)” value in assay [3] is listed as “binding was impacted”. For the same molecule, the “binding to feline 11E12 mutant IL-31 (Biacore)” value in assay [4] was “impacted”.

B2: ZIL69: fully canine anti IL-31 antibody, VH SEQ ID NO: 91, VL SEQ ID NO: 93 (antibody, listed as Canis familiaris, V domains shown)
VH: EVQLVESGGDLVKPAGSLRLSCVASGFTFSSYAMKWVRQAPGKGLQWVATINNDGTRTGYADAVRGRFTISKDNAKNTLYLQMDSLRADDTAVYYCTKGNAESGCTGDHCPPYWGQGTLVTVSS
VL: SSVLTQPPSVSVSLGQTATISCSGESLNKYYAQWFQQKAGQAPVLVIYKDTERPSGIPDRFSGSSAGNTHTLTISGARAEDEADYYCESAVSSETNVFGSGTQLTVL
As to B2, the “binding to wildtype feline IL-31 (ELISA)” value in assay [2] is “capable of binding”. Further, the “binding to feline IL-31 15H05 mutant (ELISA)” value in assay [3] is “binding was impacted”. The “binding to canine IL-31 (Biacore)” value in assay [5] is “partial canine binding”.

B3: ZIL171: fully canine anti IL-31 antibody, VH SEQ ID NO: 107, VL SEQ ID NO: 109 (antibody, listed as Canis familiaris, V domains shown)
VH: EVQLVESGGDLVKPAGSLRLSCVASGFTFRTYVMNWVRQAPGKGLQWVASINGGGSSPTYADAVRGRFTVSRDNAQNSLFLQMNSLRAEDTAIYFCVVSMVGPFDYWGHGTLVTVSS
VL: B2 VL with E25K, N28S, K29Y, A66S, E94D, N96I, S100G, Q103H
As to B3, the “binding to wildtype feline IL-31 (ELISA)” value in assay [2] was “capable of binding”. For the same molecule, the “binding to feline IL-31 15H05 mutant (ELISA)” value in assay [3] is “binding was impacted”. Further, the “binding to feline 15H05 mutant IL-31 (Biacore)” value in assay [6] was “partially affected”.

B4: ZIL159: fully canine anti IL-31 antibody, VH SEQ ID NO: 103, VL SEQ ID NO: 105 (antibody, listed as Canis familiaris, V domains shown)
VH: EVQLVESGGDLVKPAGSLRLSCVASGFTFSSYVMTWVRQAPGKGLQWVAGINSEGSRTAYADAVKGRFTISRDNAKNTLYLQIDSLRAEDTAIYYCATGDIVATGTSYWGQGTLVTVSS
VL: SNVLTQPPSVSVSLGQTATISCSGETLNRFYTQWFQQKAGQAPVLVIYKDTERPSGIPDRFSGSSSGNIHTLTISGARAEDEAAYYCKSAVSIDVGVFGGGTHLTVF
Turning to B4, the “binding to wildtype feline IL-31 (ELISA)” value in assay [2] is recorded as “capable of binding”. Moreover, in assay [3], the “binding to feline IL-31 15H05 mutant (ELISA)” value is recorded as “binding was impacted”. Further, the “binding to canine IL-31 (Biacore)” value in assay [5] was “dual binding property”. Besides, the “binding to feline 11E12 mutant IL-31 (Biacore)” value in assay [4] is on record as “impacted”.

B5: ZIL94: fully canine anti IL-31 antibody, VH SEQ ID NO: 95, VL SEQ ID NO: 97 (antibody, listed as Canis familiaris, V domains shown)
VH: EVQLVDSGGDLVKPGGSLRLSCVASGFTFSTYFMSWVRQAPGRGLQWVALISSDGSGTYYADAVKGRFTISRDNAKNTLYLQMNSLRAEDTAMYYCAIFWRAFNDWGQGTLVTVSS
VL: QTVVIQEPSLSVSPGGTVTLTCGLNSGSVSTSNYPGWYQQTRGRTPRTIIYDTGSRPSGVPNRFSGSISGNKAALTITGAQPEDEADYYCSLYTDSDILVFGGGTHLTVL
B5: in assay [2], the “binding to wildtype feline IL-31 (ELISA)” value is reported as “capable of binding”. Further, the “binding to feline IL-31 15H05 mutant (ELISA)” value in assay [3] is “binding was impacted”. Besides, the “binding to canine IL-31 (Biacore)” value in assay [5] is “dual binding property”.

For the origin of these results see patent US11433139B2, “Peptide vaccines against interleukin-31” (Zoetis Services LLC, priority 2018, dated 2022).
